Molecular target: T1, 6xHis-Ndt80 WT DBD (Saccharomyces cerevisiae, UniProt P38830 1-340)
T1 sequence: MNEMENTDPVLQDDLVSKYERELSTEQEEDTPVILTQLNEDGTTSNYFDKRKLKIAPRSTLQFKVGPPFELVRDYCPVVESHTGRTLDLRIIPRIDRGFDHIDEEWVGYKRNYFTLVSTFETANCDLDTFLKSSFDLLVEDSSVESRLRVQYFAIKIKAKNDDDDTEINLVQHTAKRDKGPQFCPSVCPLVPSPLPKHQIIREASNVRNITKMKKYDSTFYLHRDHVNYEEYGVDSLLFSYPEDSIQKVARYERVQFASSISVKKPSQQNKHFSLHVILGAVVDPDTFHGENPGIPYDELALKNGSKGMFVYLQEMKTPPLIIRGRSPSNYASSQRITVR
Experiment: EMSA; 50 nM DBD, 50 nM duplex; highest non-specific binding of the three DBDs; EMSA: 10 mM Tris-HCl pH 7.5, 40 mM NaCl, 4 mM MgCl2, 6% glycerol, 10 mg/ml BSA, 10 ug/ml sonicated salmon sperm DNA; 20 ul, room temperature, 30 min; 6% PAGE in 0.5X TBE
Settings: protein: recombinant; tags: N-terminal 6xHis (pET-28a); label: 5' Cy5 on strand 1; blunt

B1: Cy5-Scr duplex (dsDNA)
DNA 1: ATTGACGCGGCTTCATCTCACGTATCATT
DNA 2: AATGATACGTGAGATGAAGCCGCGTCAAT
  binding result: binds

— paper PMC6289461, “Mek1 coordinates meiotic progression with DNA break repair by directly phosphorylating and inhibiting the yeast pachytene exit regulator Ndt80”
